Measured values published in PMC3268815 (Nature, 2011).

Assays:
fibrinogen fragment D [1] = target: T1, fibrinogen fragment D (human, UniProt P02671 130-216; P02675 164-491; P02679 114-432); test: pull-down
T1 sequence 1: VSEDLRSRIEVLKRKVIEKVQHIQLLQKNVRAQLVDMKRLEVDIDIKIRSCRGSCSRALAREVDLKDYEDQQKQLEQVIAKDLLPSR
T1 sequence 2: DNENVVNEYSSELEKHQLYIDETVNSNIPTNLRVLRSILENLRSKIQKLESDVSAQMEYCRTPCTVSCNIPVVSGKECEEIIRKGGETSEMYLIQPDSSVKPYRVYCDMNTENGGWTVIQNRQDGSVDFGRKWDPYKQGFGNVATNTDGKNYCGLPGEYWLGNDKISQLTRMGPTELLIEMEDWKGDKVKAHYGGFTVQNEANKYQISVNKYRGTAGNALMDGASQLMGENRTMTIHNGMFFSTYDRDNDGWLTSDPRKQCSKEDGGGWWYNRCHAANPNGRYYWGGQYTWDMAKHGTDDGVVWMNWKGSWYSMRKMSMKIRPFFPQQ
T1 sequence 3: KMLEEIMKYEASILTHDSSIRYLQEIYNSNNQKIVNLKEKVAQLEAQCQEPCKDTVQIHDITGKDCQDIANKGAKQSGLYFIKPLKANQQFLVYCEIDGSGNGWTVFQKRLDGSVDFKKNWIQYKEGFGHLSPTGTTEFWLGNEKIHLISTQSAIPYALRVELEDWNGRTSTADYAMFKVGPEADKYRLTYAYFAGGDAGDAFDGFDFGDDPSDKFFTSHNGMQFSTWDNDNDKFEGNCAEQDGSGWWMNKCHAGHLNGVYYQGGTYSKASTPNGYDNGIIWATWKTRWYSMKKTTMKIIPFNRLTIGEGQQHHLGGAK

crystal structure = target: the molecule itself; test: crystal structure
fibrinogen fragment D [2] = target: T1, fibrinogen fragment D; test: crystal structure

B1: M1 B2C (residues 162-189 deleted and inserted after C-terminal residue 453) (natural protein, UniProt Q99XV0 42-453, looked up)
chain: NGDGNPREVIEDLAANNPAIQNIRLRYENKDLKARLENAMEVAGRDFKRAEELEKAKQALEDQRKDLETKLKELQQDYDLAKESTSWDRQRLEKELEEKKEALELAIDQASRDYHRATALEKELETITREQEINRNLLGNAKLELDQLSSEKEQLTIEKAKLEEEKQISDASRQSLRRDLDASREAKKQVEKDLANLTAELDKVKEDKQISDASRQGLRRDLDASREAKKQVEKDLANLTAELDKVKEEKQISDASRQGLRRDLDASREAKKQVEKALEEANSKLAALEKLNKELEESKKLTEKEKAELQAKLEAEAKALKEQLAKQAEELAKLRAGKASDSQTPDTKPGNKAVPGKGQAPQAGTKPNQNKAPMKETKRQLPSTEKELEEKKKALELAIDQASQDYNRANVL
binding result (fibrinogen fragment D [1]): binds

B2: M1^BC1 (M1 fragment with B-repeats, S-region and first C-repeat) (domain or fragment, UniProt Q99XV0 128-263, looked up)
chain: WDRQRLEKELEEKKEALELAIDQASRDYHRATALEKELEEKKKALELAIDQASQDYNRANVLEKELETITREQEINRNLLGNAKLELDQLSSEKEQLTIEKAKLEEEKQISDASRQSLRRDLDASREAKKQVEKDL
stoichiometry N (crystal structure): 2

B3: selenomethionine-substituted M1^BC1(I148M) (domain or fragment, UniProt Q99XV0 128-263, looked up)
chain: WDRQRLEKELEEKKEALELAMDQASRDYHRATALEKELEEKKKALELAIDQASQDYNRANVLEKELETITREQEINRNLLGNAKLELDQLSSEKEQLTIEKAKLEEEKQISDASRQSLRRDLDASREAKKQVEKDL
modifications: selenomethionine-substituted
binding result (fibrinogen fragment D [2]): binds
